Assay results published in article PMC7674511 (2020).

B1: BAG6 LIR1 peptide (residues 124-143) [modified: FITC label (position not stated), told for the anisotropy assay; FITC label (position not stated), told for the anisotropy assay] [not stated] / LC3B-I [not stated] (parent complex)
chain 1: VHDRNANSYVMVGTFNLPSD
chain 2: not shown
B2: FLAG-BAG6(1-266aa) [not stated] / GFP-LC3B [not stated] (parent complex)
chain 1: MEPNDSTSTAVEEPDSLEVLVKTLDSQTRTFIVGAQMNVKEFKEHIAASVSIPSEKQRLIYQGRVLQDDKKLQEYNVGGKVIHLVERAPPQTHLPSGASSGTGSASATHGGGSPPGTRGPGASVHDRNANSYVMVGTFNLPSDGSAVDVHINMEQAPIQSEPRVRLVMAQHMIRDIQTLLSRMECRGGPQPQHSQPPPQPPAVTPEPVALSSQTSEPVESEAPPREPMEAEEVEERAPAQNPELTPGPAPAGPTPAPETNAPNHPS
chain 2: not shown

Variants of: B1
Experiment: fluorescence anisotropy; FITC-labeled peptide 1 μM; read at the highest LC3B-I concentration plotted (about 48 μM); read off a plot

| response | Variant |
| --- | --- |
| ~0.001 | chain 1 Y9A, chain 1 V12A |

Variants of: B2
Experiment: co-immunoprecipitation (FLAG pulldown with anti-FLAG beads, immunoblot); HEK293FT cells transfected with GFP-LC3B and FLAG-BAG6(1-266aa) constructs

| ratio to parent | Variant |
| --- | --- |
| 0.23 | chain 1 Y132A, chain 1 V133A, chain 1 M134A, chain 1 V135A |
| 0.79 | chain 1 Y132A, chain 1 V135A |
